This assay concerns the target ActR-IIB extracellular domain (type II receptor ectodomain) (UniProt Q13705). Description: SPR; Reichert4SPR; biotinylated receptor ectodomains immobilised on a streptavidin-coated CMD200 chip (350-500 RU); BMP2 ligands as analytes, six concentrations from 160 nM (log 2 dilution series); 25 °C; 10 mM HEPES pH 7.4, 500 mM NaCl, 3.4 mM EDTA, 0.005% Tween-20; 10 μL/min; 1:1 Langmuir global fit; apparent KD, mean of two independent experiments. In general terms: SPR reads the build-up and loss of mass on a sensor chip optically.
UniProt Q13705, sequence (Q13705 19-137): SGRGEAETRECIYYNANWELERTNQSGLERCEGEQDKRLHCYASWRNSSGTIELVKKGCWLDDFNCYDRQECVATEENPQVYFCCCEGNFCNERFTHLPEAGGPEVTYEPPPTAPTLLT

pKd: −log10 of the molar value.

For one substance, Kd results are on record in paper PMC8999711.

As usually defined, the pKd is the Kd on a negative log10 scale, so that one unit is a factor of ten. On to “BMP2 Azide (BMP2 variant with H-L-Lys(EO-N3)-OH at position 83 of each chain) (ligand)”, for which the pKd was 7.94.
